In article PMC5779621:

How the values were obtained:
[1] = target: Fibroblast growth factor receptor (human (endogenous in MCF-7)) (UniProt P11362); test: Western blot of cell lysates for the receptor dimer
purified protein = substrate: CC(=O)N[C@H]1[C@H]([C@H](O)[C@H](O)CO)O[C@](OP(=O)(O)OC[C@H]2O[C@@H](n3ccc(N)nc3=O)[C@H](O)[C@@H]2O)(C(=O)O)C[C@@H]1O; test: purified protein; settings: donor substrate; acceptor type II LacNAc

| stoichiometry N [1] | Molecule | Km (purified protein) [µM] |
| --- | --- | --- |
| 2 | Fibroblast growth factor receptor (from UniProt P11362 22-822) | – |
| – | recombinant human ST3Gal-IV (α2,3-sialyltransferase) (Homo sapiens) (protein) REDRYIELFYFPIPEKKEPCLQGEAESKASKLFGNYSRDQPIFLRLEDYFWVKTPSAYELPYGTKGSEDLLLRVLAITSSSIPKNIQSLRCRRCVVVGNGHRLRNSSLGDAINKYDVVIRLNNAPVAGYEGDVGSKTTMRLFYPESAHFDPKVENNPDTLLVLVAFKAMDFHWIETILSDKKRVRKGFWKQPPLIWDVNPKQIRILNPFFMEIAADKLLSLPMQQPRKIKQKPTTGLLAITLALHLCDLVHIAGFGYPDAYNKKQTIHYYEQITLKSMAGSGHNVSQEALAIKRMLEMGAIKNLTSF | 73.4 |
